Columns and labels:
[1] = target: T1, BCL6-3C BTB domain (human BCL6 residues 5-129 with C8Q/C67R/C84N) (human), P41182; experiment: ITC in solution, 25° C; settings: remark: other sources report otherwise
[2] = target: T1, BCL6-3C BTB domain (human BCL6 residues …); experiment: ITC in solution, 25° C; ITC in solution, not SPR; settings: remark: other sources report otherwise

B1: SMRT^1414-1430 peptide (SMRT-BBD), no additional N-terminal residues (peptide)
peptide: LVATVKEAGRSIHEIPR
-TΔS [1]: 16.4 | stoichiometry (SMRT peptides per BCL6 chain) (SMRT peptides per BCL6 chain) [1]: 1.11 | ΔH [1]: -23.2 kcal/mol | Kd [2]: 11.4 µM

Reference: US20090018083A1
